Where “and” joins values, the source holds several entries; their conditions need not be identical. Equal entries are not always repeated.
Target: the molecule itself
Assay: cross-linking; HeLa cells infected with C. trachomatis L2 (wild type or transformants induced at 16 hpi) treated with 0.25 mM DSS in HBSS pH 7.6 on ice at 4°C for at least 1 h; whole-cell lysates on 8% SDS-PAGE, immunoblot with anti-ClpC (endogenous) or anti-6×His (ectopic)

B1: endogenous ClpC of wild-type C. trachomatis serovar L2 (natural protein)
chain: not shown
notes: ClpC AAA+ ATPase of Chlamydia trachomatis serovar L2; monomer of the expected size 95 kDa; source: endogenous, wild-type Ctr L2 in infected HeLa cells, whole-cell lysate
Q: How did the “stoichiometry N” value turn out when B1 was run?
A: 2 and 6

— publication PMC10128030, “Molecular Characterization of the ClpC AAA+ ATPase in the Biology of Chlamydia trachomatis” (mBio, 2023)
